Values quoted from earlier work, collected in paper PMC12860355.

Target: TATA-binding protein (Homo sapiens) (UniProt P20226)
Chain of UniProt P20226 (P20226 whole entry): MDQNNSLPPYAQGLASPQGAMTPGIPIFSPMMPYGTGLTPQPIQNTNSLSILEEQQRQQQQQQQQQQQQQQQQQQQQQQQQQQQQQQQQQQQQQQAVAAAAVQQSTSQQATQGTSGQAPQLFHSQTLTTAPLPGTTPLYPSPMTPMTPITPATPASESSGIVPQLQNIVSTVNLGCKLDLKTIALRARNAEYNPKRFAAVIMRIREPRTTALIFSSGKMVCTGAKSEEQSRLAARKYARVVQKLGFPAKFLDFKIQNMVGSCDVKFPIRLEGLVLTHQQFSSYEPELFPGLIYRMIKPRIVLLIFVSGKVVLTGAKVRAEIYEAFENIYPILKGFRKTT

Importin 9 (from UniProt Q96P70)
Kd: 1 nM
